# According to article PMC4072508, “Genome-Wide Prediction and Validation of Peptides That Bind Human Prosurvival Bcl-2 Proteins” (PLoS Computational Biology, 2014):
# Biological target: Bcl-xL, Q07817
# Experiment: peptide SPOT array, c-Myc-tagged receptor at 1 uM or 100 nM, anti-c-Myc-Cy3
# Bcl-xL, Q07817, sequence (Q07817 1-209): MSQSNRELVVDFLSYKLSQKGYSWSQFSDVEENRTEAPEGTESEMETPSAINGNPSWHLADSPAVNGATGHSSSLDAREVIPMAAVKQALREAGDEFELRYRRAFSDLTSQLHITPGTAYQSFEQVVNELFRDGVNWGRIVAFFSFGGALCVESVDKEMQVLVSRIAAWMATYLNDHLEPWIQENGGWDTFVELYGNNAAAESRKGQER
row,Binder,SPOT signal as a fraction of Bim BH3's signal on the same receptor and array
1,MGVLAAAARCLVRGLDRMSKWTSKRG [MRPL41],0.42
2,DFMGRTFAKPDVKMADEAYCPPRFPP [OTOF],0.03
3,EQKVKQKAADLLEMATFLQKRVEEEE [C10orf79],0.02
4,AIKPVSFIRDLKKILRHFRFGNQEDA,0.42
5,VDKLKTLSETLLEMSSLFQRSGSGQM [ABCA13],0.03
6,LENYYRLADDLSNAARELRVLIDDSQ [MRS2],0.03
7,VFERCELARTDKRLGMDGYRGISLAN [LYZ],0.22
8,TCELREFVKNIDQVSSEVLEGWPDSY [TLR6],0.02
9,ELLRLRQHWKLRKVLDKILGDLSYRS,0.46
10,DQEEACASRQLHSLLSFSTVTARRNP,0.1
11,LDDIEFFITKLQKAAEAFSELSKRKK [EPS8],0.13
12,RERLRQSGERLRQSGERLRQSGERFK [MURC],0.55
13,NNDLSHIAGKLTYASQKYKNHIGTEI [HFM1],0.12
14,PFNIQDYAEALKNYAASIYNLSKKHD [NAALAD2],0.05
15,HERCQQPCKRLLICSHKCQEPCIGEC [ZNFX1],0.03
16,PEDLQDVGWFDHKLSQQILKKEKEKK [TLR5],0.05
17,GPGTLECAELLLRFGARVDGRSEEEE [ASB10],0.03
18,GMTMIEICEKLEDCSRKLIKENGLNA [METAP2],0.03
19,KEDLKGNIDKLRALADDIDKTHKKFT [APOL6],0.17
20,LGRTGQVCLFLKRGLDQHALDQEQRD [ACAP3],0.29
21,HPKRKQVTELLLRKLANVNEKNKDFM,0.43
22,HPKRKQVTELDLRKGANVNEKNKDFM,0.38
23,RAELTGLARRLADRLRKLQETNLRAV [RIMBP3],0.39
24,AGDVEGFCSSIHDTSVSAGFRALYEE [KLHL15],0.02
25,TNISWRACDHDRCIACDFLVVSYDDY [C8orf37],0.03
26,NGQFLGDALDLQKWAHEVWDIVDIKP [PPIL6],0.03
27,HRTSNVLTLSLKRFLNFSGGKITKDV,0.35
28,PDGLLEFAKRLERWGRGAFGHLRLFQ [LRRC41],0.46

row,Binder,SPOT signal as a fraction of Bim BH3's signal on the same receptor and array
1,DQEEACASRQDHSLASFSTVTARRNP,0.04
2,ESEVQHLSQKLYDWSDSQNLKITGKA [ANKRD32],0.03
3,KDSVEGICSKIYHISLEYVKRIREKH [PCIF1],0.08
4,YKGHREIARYLLEQLAQVNRRSAKGN [FEM1A],0.81
5,EVLAGPLAQRDSHIAEDVGRLVKKSR [ARHGAP4],0.04
6,KFRHDEIISLLKNVGERVVLEVEYEL [GRIP1],0.03
7,RGRTRGWVQTLARMLRRTRGPVERAA [C6orf223],0.66
8,NKDGKSVSNRLRRLLDNCGGKVLSIT [KIAA0430],0.33
9,VKAVDPTSGQLYGLARELSDEIQVQV [NUP210],0.02
10,RRFAKTIGKVDMQYADILSKDFPAYC [UNC13B],0.45
11,DVNIPDLIKQLDILGDNGNLRNEEQV [JAKMIP2],0.02
12,SISLTPVAKGLENMGADFLESLEEGQ [SLC28A1],0.02
13,YGRLRPRARSDSKASTAINWLTKKFL [MYO15A],1.49
14,TDENKKVGLADKDLAKQYSDRLECCE [NUB1],0.02
15,HCQLRSVSQEIHRLSESMAQVYRGST [TDRD6],0.04
16,KANLEKVSRTLEDQANEYRVKLEEAQ [MYH6],0.02
17,LDYHRQAVQILDELAEKLKRRMREAS [SH3GL1],0.05
18,FLRINMVSMKLLAYAMDFWSKGQLKA [PANK1],0.11
19,TERIILFGRELQALSEQLGREYGKNL [RANBP10],0.03
20,LFRIRLVCTILDTCGQYFDRGSSKRK [UPF2],0.24
21,HRNTRNLAAFLGKALDLLRFPVKQLY [RP1L1],0.47
22,IQRMGKYALLLQELARACGGPTQELS [PLEKHG4],0.08
23,ELLRLRQHWKDRKVGDKILGDLSYRS,1.2
24,LKELDLSGNSLSHSLVKSLCKTLRRP [NLRP1],0.28
25,SDDVQKIVEELQSLSKMLLKDVEEEK [IL31],0.03
26,FTGNNTAVQELKRVLEQFTATFRRKA [TUBB4Q],0.7
27,QNSRDPFCKAIEEVAQDLDLRIKNII [C12orf48],0.03
